As usually defined, the stoichiometry N is the number of molecules, sites or subunits per partner or assembly.

Experiment [1] addresses tag-less B.1.351 trimeric spike protein (SARS-CoV-2 | T4 phage). The experiment in a line: SEC-MALS.
Experiment [2] has as its target tag-less B.1.617.2 trimeric spike protein (SARS-CoV-2 | T4 phage). In words: SEC-MALS. (In general: Size exclusion chromatography separates by hydrodynamic size, large species first.)

Values joined by “and” are separate entries in the source; they are usually repeats but may differ in a detail not shown here. Identical values can stand only once.

As for tag-less B.1.351 trimeric spike protein, in experiment [1], the stoichiometry N was 3 and 6. Take “tag-less B.1.617.2 trimeric spike protein”: in experiment [2], the stoichiometry N was 3 and 6.

The values are drawn from paper PMC9560800.
